Measurements taken from paper PMC1839085, “Crystal structures of an Extracytoplasmic Solute Receptor from a TRAP transporter in its open and closed forms reveal a helix-swapped dimer requiring a cation for α-keto acid binding” (BMC Structural Biology, 2007).

B1: Selenomethionine-labeled TakP from Rhodobacter sphaeroides (natural protein, Rhodobacter sphaeroides 2.4.1)
chain: QSAPKVTWRLASSFPKSLDTIFGGAEVLSKMLSEATDGNFQIQVFSAGELVPGLQAADAVTEGTVECCHTVGYYYWGKDPTFALAAAVPFSLSARGINAWHYHGGGIDLYNEFLSQHNIVAFPGGNTGVQMGGWFRREINTVADMQGLKMRVGGFAGKVMERLGVVPQQIAGGDIYPALEKGTIDATEWVGPYDDEKLGFFKVAPYYYYPGWWEGGPTVHFMFNKSAYEGLTPTYQSLLRTACHAADANMLQLYDWKNPTAIKSLVAQGTQLRPFSPEILQACFEAANEVYAEMEASNPAFKKIWDSIKAFRSEHYTWAQIAEYNYDTFMMVQQNAGKL
modifications: selenomethionine (SeMet) labeled
notes: TakP (previously named SmoM), Rhodobacter sphaeroides 2.4.1; same construct as m1 (pET101/D-TOPO, 1099 bp fragment), labeled with selenomethionine; final model holds four molecules from residue 28 or 32 to 365; Same construct as m1, with methionines replaced by selenomethionine; used for the unliganded MAD structure (PDB 2HZK); also called SeMet TakP; selenomethionine labeled protein; source: E. …
B2: TakP (TRAP transporter alpha-keto acid binding P subunit) from Rhodobacter sphaeroides (natural protein, Rhodobacter sphaeroides 2.4.1)
chain: QSAPKVTWRLASSFPKSLDTIFGGAEVLSKMLSEATDGNFQIQVFSAGELVPGLQAADAVTEGTVECCHTVGYYYWGKDPTFALAAAVPFSLSARGINAWHYHGGGIDLYNEFLSQHNIVAFPGGNTGVQMGGWFRREINTVADMQGLKMRVGGFAGKVMERLGVVPQQIAGGDIYPALEKGTIDATEWVGPYDDEKLGFFKVAPYYYYPGWWEGGPTVHFMFNKSAYEGLTPTYQSLLRTACHAADANMLQLYDWKNPTAIKSLVAQGTQLRPFSPEILQACFEAANEVYAEMEASNPAFKKIWDSIKAFRSEHYTWAQIAEYNYDTFMMVQQNAGKL
notes: TakP (previously named SmoM), extracytoplasmic solute receptor (P subunit) of a TRAP transporter, Rhodobacter sphaeroides 2.4.1; gene amplified from genomic DNA as a 1099 bp fragment and cloned into pET101/D-TOPO; crystal models span residues 28 or 32 to 365; The 1099 bp fragment would fit the whole gene of 365 codons, so the signal peptide may be in the construct; The theoretical molecular …

Experiments:
[1] = molecular target: the molecule itself; test: crystal structure; unliganded SeMet TakP, space group P2(1), four molecules in the asymmetric unit; hanging drop, 293 K, 100 mM sodium citrate pH 5.8-6.0, 1.4-1.6 M ammonium sulfate; solved by MAD
[2] = molecular target: the molecule itself; test: SEC; gel filtration on Superdex 200 26/60 in 20 mM Tris HCl pH 8.0, 50 mM NaCl, calibrated with commercial standards
[3] = molecular target: the molecule itself; test: cross-linking; 3.2 and 6.3 μM TakP with 50 mM glutaraldehyde, 20 mM Na2HPO4/KH2PO4 pH 7.8, 18°C, 3 hours; denaturing 10% Nu-PAGE gel; dimer to monomers

| Protein | binding result [1] | stoichiometry N [2] | Kd [3] [nM] |
| --- | --- | --- | --- |
| B1 | binds | – | – |
| B2 | – | 2 | < 300 |
